Measured values published in the supplement of paper PMC10201428.
± gives the standard deviation of the averaged measurements.

Experiments:
[1] = test system: VchCAST RNA-guided transposition machinery (E. coli BL21(DE3) host, lacZ target); test: relative integration efficiency (T-RL orientation) vs wild-type transposon end (log2 (normalized fold change)); transposon end mutated: right end (5 bp flank + 75 bp right end); higher = more efficient transposition
In short: (§1)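 Relative integration efficiency is a fold change of output over input barcode abundance, normalised to reference barcodes and log-transformed. Input plasmids and genomic integration junctions were PCR-amplified and Illumina-sequenced from E. coli BL21(DE3) co-transformed with a T7-driven effector plasmid and pUC57 donor pools of 1549 left-end or 1849 right-end transposon variants. Plating was done with 0.1 mM IPTG at 37°C for 18 h, with two biological output replicates and four reference barcodes.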

[2] = test system: VchCAST RNA-guided transposition machinery (E. coli BL21(DE3) host, lacZ target); test: relative integration efficiency (T-LR orientation) vs wild-type transposon end (log2 (normalized fold change)); transposon end mutated: right end (5 bp flank + 75 bp right end); higher = more efficient transposition
In short: as §1

Sequence	relative integration efficiency (log2) [1]	relative integration efficiency (log2) [2]
ACATTTGTTGATACAACCATTAAATGATAATTCCACCCATCAATTGATAATTATCACACCCAATTTAACTATAACGCTCTGATCATAGTCAGACCAACATTGCTACGACCCGTATTCGCACCGACAC	-1.79 ± 0.23	1.01 ± 0.31
ACATTTGTTGATACAACCATTAAATGATAATTCCACCCCTAAATTGATAATTATCACACCCAATTTAACTATAACGCTCTGATCATAGTCAGACCAACATTGCTACGACCCGTATTCGCACCGACAC	-2.75 ± 0.27	0.256 ± 0.39
ACATTTGTTGATACAACCATTAAATGATAATTCCACCCTTAAATTGATAATTATCACACCCAATTTAACTATAACGCTCTGATCATAGTCAGACCAACATTGCTACGACCCGTATTCGCACCGACAC	-2.08 ± 0.36	0.973 ± 0.22
ACATTTGTTGATACAACCATTAAATGCTAATTCCACCCATAAATTGATAATTATCACACCCAATTTAACTATAACGCTCTGATCATAGTCAGACCAACATTGCTACGACCCGTATTCGCACCGACAC	-0.972 ± 0.32	2.09 ± 0.22
ACATTTGTTGATACAACCATTAAATGGTAATTACACCCATAAATTGATAATTATCACACCCAATTTAACTATAACGCTCTGATCATAGTCAGACCAACATTGCTACGACCCGTATTCGCACCGACAC	-1.34 ± 0.19	1.674 ± 0.011
ACATTTGTTGATACAACCATTAAATGGTAATTCCACCCAAAAATTGATAATTATCACACCCAATTTAACTATAACGCTCTGATCATAGTCAGACCAACATTGCTACGACCCGTATTCGCACCGACAC	-2.14 ± 0.21	0.883 ± 0.18
ACATTTGTTGATACAACCATTAAATGGTAATTCCACCCAAATATTGATAATTATCACACCCAATTTAACTATAACGCTCTGATCATAGTCAGACCAACATTGCTACGACCCGTATTCGCACCGACAC	-2.19 ± 0.42	0.805 ± 0.3
ACATTTGTTGATACAACCATTAAATGGTAATTCCACCCATAAATTGATAATTATCACACCCAATTTAACTATAACGCTCTGATCATAGTCAGACCAACATTGCTACGACCCGTATTCGCACCGACAC	-1.26 ± 0.19	2.07 ± 0.25
ACATTTGTTGATACAACCATTAAATGGTAATTCCACCCATATATTGATAATTATCACACCCAATTTAACTATAACGCTCTGATCATAGTCAGACCAACATTGCTACGACCCGTATTCGCACCGACAC	-1.52 ± 0.24	1.37 ± 0.13
ACATTTGTTGATACAACCATTAAATGTTAATTCCACCCATAAATTGATAATTATCACACCCAATTTAACTATAACGCTCTGATCATAGTCAGACCAACATTGCTACGACCCGTATTCGCACCGACAC	-1.56 ± 0.23	1.73 ± 0.32
ACATTTGTTGATACAACCATTTAATGATAATAACACCCATAAAATGATAATTATCACACCCAATTTAACTATAACGCTCTGATCATAGTCAGACCAACATTGCTACGACCCGTATTCGCACCGACAC	-1.14 ± 0.26	2.01 ± 0.13
ACATTTGTTGATACAACCATTTAATGATAATTACACCCATAAATTGATAATTATCACACCCATAAATTGATATTGCCTCTGATCATAGTCAGACCAACATTGCTACGACCCGTATTCGCACCGACAC	-0.195 ± 0.052	-0.232 ± 0.26
ACATTTGTTGATACAACCATTTTTTGATAATTACACCCATAAATTGATAATTATCACACCCATAAATTGATATTGCCTCTGATCATAGTCAGACCAACATTGCTACGACCCGTATTCGCACCGACAC	-0.627 ± 0.016	-0.748 ± 0.44
ACATTTGTTGATACAACCATTTTTTGATAATTACACCCATTTTATGATAATTATCACACCCATTTTATGATATTGCCTCTGATCATAGTCAGACCAACATTGCTACGACCCGTATTCGCACCGACAC	-1.61 ± 0.23	-1.01 ± 0.052
ACATTTGTTGATACAACCCGAAAATGATAATTACACCCATAAATTGATAATTATCACACCCATAAATTGATATTGCCTCTGATCATAGTCAGACCAACATTGCTACGACCCGTATTCGCACCGACAC	-3.8 ± 0.095	-3.67 ± 0.84
ACATTTGTTGATACAACCCGCCAATGATAATTACACCCATAAATTGATAATTATCACACCCATAAATTGATATTGCCTCTGATCATAGTCAGACCAACATTGCTACGACCCGTATTCGCACCGACAC	-4.28 ± 0.2	-3.85 ± 0.3
ACATTTGTTGATACAACCCTAAAATGATAATTACACCCATAAATGGATAATTATCACACCCAATTTAACTATAACGCTCTGATCATAGTCAGACCAACATTGCTACGACCCGTATTCGCACCGACAC	-3.06 ± 0.29	-0.403 ± 0.044
ACATTTGTTGATACAACCCTAAAATGATAATTACACCCATAAATGGATAATTATCACCCCCAATTTAACTATAACGCTCTGATCATAGTCAGACCAACATTGCTACGACCCGTATTCGCACCGACAC	-3.24 ± 0.23	-0.791 ± 0.11

Sequence	relative integration efficiency (log2) [1]	relative integration efficiency (log2) [2]
ACATTTGTTGATACAACCCTAAAATGATAATTACACCCATAAATGGATCATTATCACACCCAATTTAACTATAACGCTCTGATCATAGTCAGACCAACATTGCTACGACCCGTATTCGCACCGACAC	-3.87 ± 0.32	-1.52 ± 0.39
ACATTTGTTGATACAACCCTAAAATGATAATTACACCCATAAATGGATCATTATCACCCCCAATTTAACTATAACGCTCTGATCATAGTCAGACCAACATTGCTACGACCCGTATTCGCACCGACAC	-4.22 ± 0.58	-1.44 ± 0.036
ACATTTGTTGATACAACCCTAAAATGATAATTACACCCATAAATTCATAATTATCACACCCAATTTAACTATAACGCTCTGATCATAGTCAGACCAACATTGCTACGACCCGTATTCGCACCGACAC	-4.59 ± 0.4	-1.75 ± 0.15
ACATTTGTTGATACAACCCTAAAATGATAATTACACCCATAAATTCATAATTATCACCCCCAATTTAACTATAACGCTCTGATCATAGTCAGACCAACATTGCTACGACCCGTATTCGCACCGACAC	-4.15 ± 0.4	-1.67 ± 0.083
ACATTTGTTGATACAACCCTAAAATGATAATTACACCCATAAATTCATCATTATCACACCCAATTTAACTATAACGCTCTGATCATAGTCAGACCAACATTGCTACGACCCGTATTCGCACCGACAC	-4.59 ± 0.18	-1.57 ± 0.23
ACATTTGTTGATACAACCCTAAAATGATAATTACACCCATAAATTCATCATTATCACCCCCAATTTAACTATAACGCTCTGATCATAGTCAGACCAACATTGCTACGACCCGTATTCGCACCGACAC	-4.72 ± 0.23	-1.49 ± 0.085
ACATTTGTTGATACAACCCTAAAATGATAATTACACCCATAAATTGATAATTATCACCCCCAATTTAACTATAACGCTCTGATCATAGTCAGACCAACATTGCTACGACCCGTATTCGCACCGACAC	-1.61 ± 0.24	1.5 ± 0.089
ACATTTGTTGATACAACCCTAAAATGATAATTACACCCATAAATTGATCATTATCACACCCAATTTAACTATAACGCTCTGATCATAGTCAGACCAACATTGCTACGACCCGTATTCGCACCGACAC	-3 ± 0.31	0.357 ± 0.061
ACATTTGTTGATACAACCCTAAAATGATAATTACACCCATAAATTGATCATTATCACCCCCAATTTAACTATAACGCTCTGATCATAGTCAGACCAACATTGCTACGACCCGTATTCGCACCGACAC	-2.81 ± 0.49	0.404 ± 0.19
ACATTTGTTGATACAACCCTAAAATGATAATTACACCCCTAAATTGATAATTATCACACCCCTAAATTGATATTGCCTCTGATCATAGTCAGACCAACATTGCTACGACCCGTATTCGCACCGACAC	-4.68 ± 0.11	-3.01 ± 0.1
ACATTTGTTGATACAACCTAAAAATGATAATTACACCCATAAATTGATAATTATCACACCCATAAATTGATATTGCCTCTGATCATAGTCAGACCAACATTGCTACGACCCGTATTCGCACCGACAC	-0.616 ± 0.0067	-0.819 ± 0.32
ACATTTGTTGATACAACCTATTAATGATAATTACACCCATAAATTGATAATTATCACACCCATAAATTGATATTGCCTCTGATCATAGTCAGACCAACATTGCTACGACCCGTATTCGCACCGACAC	-0.905 ± 0.052	-1.46 ± 0.16
ACATTTGTTGATACAACCTTAAAATGATAATTACACCCTTAAATTGATAATTATCACACCCTTAAATTGATATTGCCTCTGATCATAGTCAGACCAACATTGCTACGACCCGTATTCGCACCGACAC	-1.34 ± 0.22	-0.505 ± 0.42
ACATTTGTTGATACAACGATAAAATGATAATTACACCGATAAATTGATAATTATCACACCGATAAATTGATATTGCCTCTGATCATAGTCAGACCAACATTGCTACGACCCGTATTCGCACCGACAC	-0.127 ± 0.12	0.086 ± 0.12
ACATTTGTTGATACAACGTATAAATGATAATTACACCCATAAATTGATAATTATCACACCCATAAATTGATATTGCCTCTGATCATAGTCAGACCAACATTGCTACGACCCGTATTCGCACCGACAC	-1.91 ± 0.13	-2.43 ± 0.46
ACATTTGTTGATACAACGTTAAAATGATAATTACACCCATAAATTGATAATTATCACACCCATAAATTGATATTGCCTCTGATCATAGTCAGACCAACATTGCTACGACCCGTATTCGCACCGACAC	-0.928 ± 0.01	-1.02 ± 0.3
ACATTTGTTGATACAAGCATAAAATGATAATTACACGCATAAATTGATAATTATCACACGCATAAATTGATATTGCCTCTGATCATAGTCAGACCAACATTGCTACGACCCGTATTCGCACCGACAC	-0.3912 ± 0.0011	-0.218 ± 0.08
